From US20100151492A1 come the findings set out here.

Assay [1] deals with human PD-L1 (human) (UniProt Q9NZQ7). Briefly: cell-based or functional assay.
Assay [2] deals with human PD-1 (human) (UniProt Q15116). Briefly: cell-based or functional assay.
UniProt Q15116, sequence (Q15116 other isoform, or with tags, fused parts or gaps limits assumed): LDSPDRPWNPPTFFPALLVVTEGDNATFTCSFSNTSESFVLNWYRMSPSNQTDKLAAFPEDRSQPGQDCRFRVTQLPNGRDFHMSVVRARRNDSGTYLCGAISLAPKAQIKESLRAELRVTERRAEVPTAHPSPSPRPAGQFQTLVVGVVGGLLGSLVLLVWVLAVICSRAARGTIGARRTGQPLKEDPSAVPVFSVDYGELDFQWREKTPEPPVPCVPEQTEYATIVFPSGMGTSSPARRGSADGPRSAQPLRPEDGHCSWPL

UniProt Q9NZQ7, sequence (Q9NZQ7 19-290 limits assumed): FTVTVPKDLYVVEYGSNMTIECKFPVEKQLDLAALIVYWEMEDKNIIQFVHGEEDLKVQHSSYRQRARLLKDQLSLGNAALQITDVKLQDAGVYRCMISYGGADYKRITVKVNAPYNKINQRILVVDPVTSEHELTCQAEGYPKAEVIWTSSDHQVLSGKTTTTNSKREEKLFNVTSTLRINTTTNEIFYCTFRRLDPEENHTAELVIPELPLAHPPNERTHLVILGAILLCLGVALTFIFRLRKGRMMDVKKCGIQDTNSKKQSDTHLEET

In assay [1], “Monoclonal antibody to human PD-L1 (29E.2A3, mouse IgG2b)” came in with an expansion of HCV-specific T cells (frequency of CFSE low tetramer labeled CD8+ T cells after 6 days) of 4 fold, a fold increase in tetramer+ cells (6-day CFSE proliferation of B*4201 TL9-specific CD8+ T cells) of 10.3 fold, a fold increase in the frequency of EBV or CMV-specific CD8 T cells (6-day CFSE proliferation) of less than 3.5 fold and a percentage of B*4201 TL9-specific CD8+ T cells after 6-day stimulation with peptide of 12.4%.
As for “Monoclonal antibody to human PD-1 (EH12, mouse IgG1)”, the expansion of HCV-specific T cells (frequency of CFSE low tetramer labeled CD8+ T cells after 6 days) in assay [2] came out at 4 fold.
